Biological target: the molecule itself
Assay: AUC

B1: hCCL5-K25S (ligand)
chain: SPYSSDTTPCCFAYIARPLPRAHISEYFYTSGKCSNPAVVFVTRKNRQVCANPEKKWVREYINSLEMS
**Q.** B1 was tested. Which “stoichiometry N” value did it give?
**A.** Its value is about 200.

— paper PMC12009402 (Scientific Reports, 2025)
